Each binder was assayed against receptor binding domain (RBD) of the wildtype (WT) SARS-CoV-2 spike protein (SARS-CoV-2, wildtype (sequence as in …)).

Binder | binding result
mRBD3 (antibody, V domains shown) VH: QVQLQQPGAELVMPGTSVKLSCKASGYIFTSYWMHWVKQRPGQGLEWIGEIDPSDNYTNYNQKFKGKSTLTVDKSSSTAYMQLSSLTSEDSAVYYCARGGLYYYGSSYDAMDYWGQGTSVTVSS VL: DIVMTQAAPSVPVTPGESVSISCRSSKSLLHSNGNTYLYWFLQRPGQSPQLLIYRMSNLASGVPDRFSGSGSGTAFTLRISRVEAEDVGAYYCMQHLEYPFTFGSGTKLEIK | binds
mRBD4 (antibody, V domains shown) VH: QVQLQQPGAELVMPGASVKLSCKASGYTFTSYWMHWVKQRPGQGLEWIGEIDPSDSYTNYNQKFKDKSTLTVDKSSSTAYMQLSSLTSEDSAVYYCARGGVYYYGSSHYFDYWGQGTTLTVSS VL: DIVMTQAAPSVPVTPGESVSISCRSSKSLLHSNGNTYLYWFLQRPGQSPQFLIYRMSNLASGVPDRFSGSGSGTAFTLRISRVEAEDVGVYYCMQHLEYPFTFGSGTKLEIK | binds
mRBD18 (antibody, V domains shown) VH: QIQLVQSGPELKKPGETVKISCKASGYTFTDYPMHWVQQAPGKGFKWMGMIYTDTGEPTYAEEFKGRFAFSLETSASTAYLQINNLKNEDTATYFCVRWAGYFDYWGQGTTLTVSS VL: DIVLTQSPASLAVSLGQRATISCRASESVDSYGNSFMDWYQQKPGQPPKLLIYRASNLESGIPARFSGSGSRTDFTLIINPVEADDVATYYCQQSNEHPLTFGAGTKLELK | binds
mRBD11 (antibody, V domains shown) VH: QVQLQQSGAELARPGASVKLSCKASGYTFISNGISWVKQRTGQGLEWIGEIYPRNGNTYYNEKFKGKATLTADKSSSTAYMELRSLTSEDSAVFFCARDYYYGNFDYWGQGTTLTVSS VL: NIVLTQSPASLAVSLGQRATISCRASESVDSYGNSFMHWYQQKPGQPPKLLIYLASNLESGVPARFSGSGSRTDFTLTIDPVEADDAATYYCQQNNEDPYTFGGGTKLEIK | binds
mRBD20 (antibody, V domains shown) VH: QIQLVQSGPELKKPGETVKISCKASGYTLTEYPMHWVKQAPGKGFKWMGMIYTDTGEPTYAEEFKGRFAFSLETSASTAYLQINNLKNEDTATYFCVRAGPSYAMDYWGQGTSVTVSS VL: NIVLTQSPASLAMSLGQRATISCRASESVDSYGNSFMHWYQLKPGQPPKLLIYLASNLESGVPARFSGSGSRTDFTLTIDPVEADDAATYYCQQNNEDPYTFGGGTKLEIK | binds
mRBD19 (antibody, V domains shown) VH: QIQLVQSGPELKKPGETVKISCKASGYTFTEYPMHWVKQAPGKGFKWMGMIYTDTGEPTYAEEFKGRFAFSLETSASTAYLQINNLKNEDTATYFCVRGGPYYAMDYWGQGTSVTVSS VL: NIVLTQSPASLAVSLGQRATISCRASESVDSYGNSFMHWYQQKPGQPPKLLIYLASNLESGVPARFSGSGSRTDFTLTIDPVEADDAATYYCQQNNEDPWTFGGGTKLEIK | binds
mRBD15 (antibody, V domains shown) VH: QIQLVQSGPDLKKPGETVKISCKASGYTFTEYPMHWVKQAPGKGFQWMGMIYTDTGEPTYAEEFKGRFAFSLETSASTAYLQINNLKNEDTSTYFCVRAGPSYAMDYWGQGTSVTVSS VL: NIVLTQSPASLAVSLGQRATISCRASESVDSYGNSFMHWYQQKPGQPPKLLIYLASNVESGVPARFSGSGSRTDFTLTIDPVEADDAATYYCHQINEDPYTFGGGTKLEIK | binds
mRBD16 (antibody, V domains shown) VH: QIQLVQSGPELKKPGETVKISCKASGYTLTEYPMHWVKQAPGKGFKWMGMIYTDTGEPTYAEEFKGRFAFSLETSASTAYLQINNLKNEDTATYFCVRAGPSFAMDYWGQGTSVTVSS VL: NIVLTQSPASLAVSLGQRATISCRASESVDSYGNSFMHWYQQKPGQPPKLLIYLASNLESGVPARFSGSGSRTDFTLTIDPVEADDAATYYCQQNNEDPYTFGGGTKLEIK | binds
mRBD14 (antibody, V domains shown) VH: EVKLVESGGGLVQPGGSLSLSCAASGFTFTDYYMSWVRQPPGKALEWLGFIRNKANGYTTEYSASVKGRFTISRDNSQSILYLQMNALRAEDSATYYCARYIRTGWYFDVWGTGTTVTVSS VL: DIVMTQSQKFMSTSVRDRVSITCKASQNVRTAVAWYQQKPGQSPKALIYLASNRHTGVPDRFTGSGSGTDFTLTISNVQSEDLADYFCLQHWNYPWTFGGGTKLEIK | binds
mRBD5 (antibody, V domains shown) VH: QVQLQQPGAELVKPGASVKVSCKASGYTFTSYWMHWVKQRPGQGLEWIGRIHPSDSDTNYNQKFKGKATLTVDKSSSTAYMQLSSLTSEDSAVYYCAIDWDGDYWGQGTTLTVSS VL: DIVMSQSPSSLAVSAGEKVTMSCKSSQSLLNSRTRKNYLAWYQQKPGQSPKLLIYWASTRESGVPDRFTGSGSGTDFTLTISSVQAEDLAVYYCKQSYNLWTFGGGTKLEIK | binds
mRBD6 (antibody, V domains shown) VH: QVQLQQPGAELVKPGASVKVSCKASGYTFTSYWMHWVKQRPGQGLEWIGRIHPSDSDTNYNQKFKGKATLTVDKSSSTAYMQLSSLTSEDSAVYYCAMDWDVDYWGQGTTLTVSS VL: DIVMSQSPSSLAVSAGEKVTMSCKSSQSLLNSRTRKNYLAWYQQKPGQSPKLLIYWASTRESGVPDRFTGSGSGTDFTLTISSVQAEDLAVYYCKQSYNLLTFGAGTKLELK | binds
mRBD7 (antibody, V domains shown) VH: QVQLKQSGAELVRPGASVKLSCKASGYTFTDYYINWVKQRPGQGLEWIARIYPGSGNTYYNEKFKGKATLTAEKSSSTAYMQLSSLTSEDSAVYFCARYPLYDYDEEDYFDYWGQGTTLTVSS VL: DIQMTQTTSSLSASLGDRVTISCRASQDISNYLNWYQQKPDGTVKLLIYYTSRLHSGVPSRFSGSGSGTDYSLTISNLEQEDIATYFCQQGNTLPYTFGGGTKLEIK | binds
mRBD12 (antibody, V domains shown) VH: QVQLQQSGAELARPGASVKLSCKASGYTFTSYGISWVKQRTGQGLEWIGEIYPRSGNTYYNEKFKGKATLTADKSSSTAYMEVRSLTSEDSAVYFCAREGGYGYVMDYWGQGTSVTVSS VL: DIQMTQTTSSLSASLGDRVTISCRASQDISNYLNWYQQKPDGTVKLLIYYTSRLHSGVPSRFSGSGSGTDYSFTISNLEQEDIATYFCQQGNTLPWTFGGGTKLEIK | binds
mRBD10 (antibody, V domains shown) VH: QVQLKQSGAELVRPGASVKLSCKASGYTFTDYYINWVKQRPGQGLEWIARIYPGSGNTYYNEKFKGKATLTAEKSSSTAYMQLSSLTSEDSAVYFCARDYGSSYVDYFDYWGQGTTLTVSS VL: DIQMTQTTSSLSASLGDRVTISCRASQDISNYLNWYQQKPDGTVKLLIYYTSRLHSGVPSRFSGSGSGTDYSLTISNLEQEDIATYFCQQGNTLPLTFGAGTKLELK | binds
mRBD17 (antibody, V domains shown) VH: QIQLVQSGPELKKPGETVKISCKASGYTLTEYPMHWVKQAPGKGFKWMGMIYTDTGEPTYAEEFKGRFAFSLETSASTAYLQINNLKNEDTATYFCVRAGPSFAMDYWGQGTSVTVSS VL: DIQMTQTTSSLSASLGDRVTISCRASQDISNYLNWYQQKPDGTVKLLIYYTSRLHSGVPSRFSGSGSGTDYSLTISNLEQEDFATYFCQQGNTLPYTFGGGTKLEIK | binds

Reference: doi:10.1101/2023.01.10.523494 (bioRxiv, 2023)
